The text below walks through data of the RNAGym collection of RNA variant scans (doi:10.7554/elife.80360).

The chains are these.
B1: HDV Ribozyme (parent)
chain: GGCCGGCAUGGUCCCAGCCUCCUCGCUGGCGCCGGCUGGGCAACAUUCCGAGGGGACCGUCCCCUCGGUAAUGGCGAAUGGGACCCA

The variants in this series derive from B1. The series is described as follows: self-cleavage, relative activity (ratio to wild type); higher = more cleavage; co-transcriptional.
Take U12C G31U: the self-cleavage came to 0.0386. Take U12G C26A: the self-cleavage came out at 0.748. Take U12C C18G: the self-cleavage came out at 0. Turning to U12C C18U, the self-cleavage stood at 0.111. The figure for U12G G17A is 0.277; for U12C G50A it is 0.359; for U12C G50U it is 0.332. The figure for C13A G35A is 0.0339; for C13A A71U it is 0.0615; for U12C C58U it is 0.222. As for U12C C58G, the figure is 0.208; as for U12C G17C, 0.145. With U12C C36A, the self-cleavage came out at 0.142. As for U12C C21A, the figure is 0.0573; as for U12C C21U, 0. For the variant U12C C21G, the self-cleavage came out at 0.0791. Turning to U12C U72G, the self-cleavage amounted to 0.128. For the variant U12G C86A, the self-cleavage stood at 0.906. Turning to U12G C86G, the self-cleavage came out at 0.59. On to U12G C24U, for which the self-cleavage is 0.511. Regarding U12G C24A, the self-cleavage amounted to 0.65. As for U12G G53A, the self-cleavage was found to be 0.88. U12G G53U: the self-cleavage was found to be 1.01. As for C13A C48A, the self-cleavage is 0. Take C13A C48G: the self-cleavage was 0.138.

For the variant U12G G73U, the self-cleavage was found to be 0.166. In the case of U12G G73C, the self-cleavage stood at 0.489. With C13A A83G, the self-cleavage came out at 0.086.

Turning to C13A A83C, the self-cleavage stood at 0.166.

For U12G A71C, the self-cleavage was found to be 0.712. In the case of U12G A71G, the self-cleavage amounted to 0.594. Regarding C13A C84A, the self-cleavage is 0.831. C13A C84U: the self-cleavage was determined as 0.227.

Turning to C13A G39A, the self-cleavage amounted to 0.121. As to C13A G38U, the self-cleavage was 0.0536.

Take C13A G38A: the self-cleavage worked out at 0.0631.

For C13A G38C, the self-cleavage turned out to be 0.106. As for C13A G29A, the figure is 0.0268; as for C13A U69A, 0.277; as for C13A U69C, 0.111. As to C13A C14A, the self-cleavage stood at 0.128. Turning to U12C C63G, the self-cleavage stood at 0.123.

On to U12C U60A, for which the self-cleavage is 0.145. The figure for U12G U65G is 0.962; for U12G U65C it is 0.831; for C13A C62A it is 0.158.

With C13A C62U, the self-cleavage is 0.214. As for C13A A16C, the self-cleavage was 0.748. Consider C13A A16G, for which the self-cleavage turned out to be 0.293. The figure for U12G G74C is 0.151; for U12C U69G it is 0.485. Regarding U12C U69C, the self-cleavage came to 0.391. On to U12G C62U, for which the self-cleavage stood at 0.755. As for U12G C62A, the figure is 1.06; as for C13A C75G, 0.145. Take C13A C75A: the self-cleavage worked out at 0.0573. On to U12C C41G, for which the self-cleavage was 0.289. The figure for C13A G82C is 0.17; for C13A G82A it is 0.264.

Consider U12C G67U, for which the self-cleavage was 0.38. As to C13A G67C, the self-cleavage is 0.259. As for C13A G67U, the self-cleavage turned out to be 0.17. Turning to C13A G67A, the self-cleavage was determined as 0.23.

Consider C13A G59A, for which the self-cleavage was determined as 0.166. Turning to C13A G59U, the self-cleavage stood at 0.356. As for C13A G74U, the figure is 0.0443; as for C13A U23G, 0.0923; as for C13A C63U, 0.0627. U12C C26A: the self-cleavage is 0.831.

As to U12C C26U, the self-cleavage came out at 0.776. In the case of U12C A78U, the self-cleavage amounted to 0. For C13A C32G, the self-cleavage is 0.0346. For the variant C13A G25A, the self-cleavage was 0.0277. In the case of C13A G25C, the self-cleavage turned out to be 0.0773. For C13A A51G, the self-cleavage came out at 0.148. For C13A A51C, the self-cleavage was found to be 0.0898.

For the variant C13A U47G, the self-cleavage was 0.138.

Regarding C13A U47C, the self-cleavage turned out to be 0.277.

For C13A U47A, the self-cleavage stood at 0.148. C13A U60G: the self-cleavage was 0.136. Consider C13A U60C, for which the self-cleavage was found to be 0.0573. Turning to C13A U60A, the self-cleavage worked out at 0.214. The figure for U12G G81C is 0.665; for U12G G81A it is 0.201; for U12G G81U it is 0.266. Take U12G G29A: the self-cleavage came to 0.0978. On to U12G G29C, for which the self-cleavage came out at 0.175. In the case of U12G G29U, the self-cleavage was 0.0489. The figure for C13G A16C is 0.0554; for U12G U20G it is 0; for U12G U20C it is 0. The figure for U12G G59A is 0.929; for U12G G59C it is 0.95. With U12C C84U, the self-cleavage worked out at 0.208. As for U12C C84A, the figure is 0.222; as for U12C G29C, 0.0462; as for U12C G29U, 0.0346. The figure for U12C G29A is 0.0415; for U12G A51G it is 0.867; for U12G A51C it is 0.415. Consider C13A A56U, for which the self-cleavage was determined as 0.312.

Take U12C C85U: the self-cleavage is 0. For the variant U12C C85A, the self-cleavage was found to be 0.185. With U12C U46C, the self-cleavage came out at 0.101.

U12G G82A: the self-cleavage was 0.499. U12G G82U: the self-cleavage was 0.519.

Regarding U12G G82C, the self-cleavage worked out at 0.633. The figure for U12C C44A is 0.252; for U12C C44G it is 0; for U12C G59C it is 0.415.

Consider U12C G59U, for which the self-cleavage turned out to be 0.135. The figure for C13A A78C is 0.0297; for C13A A78G it is 0.0773. The figure for U12C C22A is 0.115; for U12C C22U it is 0.231. As for U12C G53U, the self-cleavage is 0.427. For the variant C13A G50U, the self-cleavage came out at 0.282. As to C13A G50A, the self-cleavage turned out to be 0.295. For the variant U12C A83U, the self-cleavage came to 0.128. Turning to U12G G40C, the self-cleavage was found to be 0.123. Take U12G G40A: the self-cleavage amounted to 0.72.

In the case of U12G C15U, the self-cleavage came to 0.453. On to U12G C15A, for which the self-cleavage was 0.237.

As for U12C C64U, the self-cleavage was 0.665. As to U12C C64A, the self-cleavage came to 0.344. C13A C26U: the self-cleavage came out at 0.764. For C13A C36U, the self-cleavage came to 0.0432. Take C13A C36G: the self-cleavage worked out at 0.192.

Consider C13A C36A, for which the self-cleavage is 0.0421.

As to U12G C49U, the self-cleavage is 0.776. The figure for U12G C49G is 0.787; for U12G C32G it is 0.0755; for U12G G67U it is 0.731.

Consider U12G U72A, for which the self-cleavage came to 0.525. In the case of U12G C66U, the self-cleavage was 0.853. For U12G C66G, the self-cleavage was found to be 0.862. Consider C13A U65A, for which the self-cleavage came to 0.348. The figure for U12G C61A is 0.798; for U12G C61G it is 0.798; for U12G C61U it is 0.831. For U12G G38A, the self-cleavage is 0.0978.

For the variant U12C C19G, the self-cleavage worked out at 0.0723. Consider U12C C19U, for which the self-cleavage is 0.0415.

Turning to U12G C21G, the self-cleavage came out at 0.0665. On to U12G C21A, for which the self-cleavage worked out at 0. U12G U27A: the self-cleavage worked out at 0.831. For U12G A77U, the self-cleavage amounted to 0.443. On to U12G A77G, for which the self-cleavage turned out to be 0.443. As for C13A U20C, the self-cleavage came out at 0.0405. Consider C13A C41A, for which the self-cleavage came out at 0.219. On to C13A C41U, for which the self-cleavage came out at 0.149. Turning to C13A C21A, the self-cleavage was found to be 0.158. C13A C21U: the self-cleavage is 0.0583. The figure for U12G U23C is 0.997. As for C13A U37A, the figure is 0.

For C13A U37G, the self-cleavage is 0.147. Take C13A G81A: the self-cleavage turned out to be 0.16.

As to C13A C66U, the self-cleavage was 0.125. Take C13A C66A: the self-cleavage was 0.125. As for C13A C66G, the self-cleavage was 0.378. The figure for U12C C24G is 0.119; for U12C C24A it is 0.232. Consider U12C C24U, for which the self-cleavage is 0.0791. The figure for C13A G28C is 0.111; for U12G C22A it is 0.277.

Regarding U12G C22U, the self-cleavage was 0.256. For the variant U12G C22G, the self-cleavage stood at 0.
